Source: paper PMC7020344, “The eEF2 kinase-induced STAT3 inactivation inhibits lung cancer cell proliferation by phosphorylation of PKM2” (Cell Communication and Signaling : CCS, 2020)
Values joined by “and” are separate entries in the source; they are usually repeats but may differ in a detail not shown here. Equal entries are not always repeated.

Biological target: the molecule itself
Assay: cross-linking; A549 cells washed with PBS pH 8.0 and treated with BS3 for 1 h at room temperature before lysis in loading buffer; dimers and tetramers by immunoblot; cells with eEF2K depletion, overexpression or A484954

B1: FLAG-PKM2 T129A (enzyme)
chain: not shown
notes: human PKM2 from the vector pWZL-FLAG-PKM2 (Addgene #20585) with the point mutation T129A made by PCR mutagenesis; source: A549 cells expressing it, in cells (cross-linked with BS3 before lysis)
  stoichiometry N: 4 and 2
